# According to article PMC10333884, “Large‐scale phosphomimetic screening identifies phospho‐modulated motif‐based protein interactions” (Molecular Systems Biology, 2023):
# Target: KPNA4 ARM ARM domain (UniProt O00629)
# Assay: FP displacement, major-pocket FITC probe
# Details: reference: unphosphorylated peptide; sites S116
# Sequence of DAXX_(606–616), wild‐type (Q9UER7 whole entry, looked up, tested part not stated): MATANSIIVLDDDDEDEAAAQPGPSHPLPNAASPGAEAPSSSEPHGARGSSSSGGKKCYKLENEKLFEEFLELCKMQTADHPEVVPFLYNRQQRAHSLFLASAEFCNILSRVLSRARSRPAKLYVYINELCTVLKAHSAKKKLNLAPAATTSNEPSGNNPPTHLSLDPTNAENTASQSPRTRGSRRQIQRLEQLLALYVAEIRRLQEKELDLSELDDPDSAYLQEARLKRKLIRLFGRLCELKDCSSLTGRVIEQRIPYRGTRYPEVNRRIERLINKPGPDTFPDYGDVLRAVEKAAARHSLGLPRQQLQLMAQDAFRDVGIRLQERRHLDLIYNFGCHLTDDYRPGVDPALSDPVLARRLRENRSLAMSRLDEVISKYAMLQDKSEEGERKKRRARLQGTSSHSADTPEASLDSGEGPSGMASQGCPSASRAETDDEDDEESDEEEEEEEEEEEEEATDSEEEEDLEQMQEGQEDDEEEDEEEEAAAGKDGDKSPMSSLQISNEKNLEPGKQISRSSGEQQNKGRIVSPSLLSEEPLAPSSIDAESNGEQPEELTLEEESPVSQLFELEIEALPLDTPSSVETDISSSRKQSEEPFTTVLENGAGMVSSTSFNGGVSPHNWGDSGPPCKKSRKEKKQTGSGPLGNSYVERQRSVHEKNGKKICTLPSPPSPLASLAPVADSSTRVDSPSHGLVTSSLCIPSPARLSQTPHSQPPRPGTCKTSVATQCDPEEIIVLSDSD
# Sequence of DAXX_(606–616), phosphorylated (pS) (Q9UER7 whole entry, looked up, tested part not stated): as above
# Sequence of DAXX_(606–616), phosphomimetic (E) (Q9UER7 whole entry, looked up, tested part not stated): as above
row,KD,Substance
1,stronger; reference 8.8 ± 0.2,CDC25A 114-125 (from UniProt P30304) pS116 peptide

# Same assay, conditions: reference: unphosphorylated peptide; sites T124
row,KD,Substance
1,weaker; reference 0.15 ± 0.01,RANBP3 114-129 (from UniProt Q9H6Z4) pT124 peptide (p+5)

# Target: GABARAPL2 (human) (UniProt P60520)
# Sequence (P60520 whole entry): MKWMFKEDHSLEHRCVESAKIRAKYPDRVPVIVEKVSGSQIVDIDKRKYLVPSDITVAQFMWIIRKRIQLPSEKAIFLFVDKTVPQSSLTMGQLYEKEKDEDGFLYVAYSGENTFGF
# Assay: fluorescence polarisation
# Details: not given
row,Kd,Substance
1,0.1 µM,"ATG4C_(444–458), phosphorylated (pS) (from UniProt Q96DT6 444-458) (peptide)"
2,260 µM,"DLGAP4_(907–922), phosphomimetic (E) (from UniProt Q9Y2H0 907-922) (peptide)"
3,150 µM,"DLGAP4_(907–922), phosphorylated (pS) (from UniProt Q9Y2H0 907-922) (peptide)"
4,174 µM,"DLGAP4_(907–922), wild‐type (from UniProt Q9Y2H0 907-922) (peptide)"

# Target: TSG101 UEV (human) (UniProt Q99816)
# Sequence (Q99816 2-145): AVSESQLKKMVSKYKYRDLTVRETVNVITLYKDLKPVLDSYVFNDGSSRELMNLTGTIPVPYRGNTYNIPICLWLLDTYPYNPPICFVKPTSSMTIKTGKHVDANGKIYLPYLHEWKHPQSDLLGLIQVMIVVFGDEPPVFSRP
# Assay: fluorescence polarisation; displacement of a FITC-labelled probe peptide (5 nM in the measurement) from the protein domain (1-2 fold over the probe's KD) by a dilution series of unlabelled peptide; room temperature; 50 mM sodium phosphate pH 7.4; KD calculated from the displacement curve; for KPNA4 ARM one probe for each pocket
# Details: not given
row,Kd,Substance
1,209 µM,"GJA1_(269–283), phosphorylated (pS) (from UniProt P17302 269-283) (peptide)"
2,232 µM,"GJA1_(269–283), wild‐type (from UniProt P17302 269-283) (peptide)"
3,16 µM,"PDCD6IP_(711–725), wild‐type (from UniProt Q8WUM4 711-725) (peptide)"
4,18 µM,"PIP4P2_(17–32), phosphomimetic (E) (from UniProt Q8N4L2 17-32) (peptide)"

# The next lines start with the substance.
row,Substance,Kd
1,"PIP4P2_(17–32), wild‐type (from UniProt Q8N4L2 17-32) (peptide)",14 µM
2,"GJA1_(269–283), phosphomimetic (E) (from UniProt P17302 269-283) (peptide)",115 µM
3,"PIP4P2_(17–32), phosphorylated (pS) (from UniProt Q8N4L2 17-32) (peptide)",16 µM

# Target: KPNA4 ARM (human)
# Assay: as above
# Details: not given
"KD, major pocket","KD, minor pocket",Substance
0.63 µM,2.8 µM,pS116 CDC25A_(114–125) (from UniProt P30304 114-125) (peptide)
0.75 µM,2.3 µM,"CDC25A_(114–125), phosphomimetic (E) (from UniProt P30304 114-125) (peptide)"
0.15 µM,68 µM,"RANBP3_(114–129), wild‐type (from UniProt Q9H6Z4 114-129) (peptide)"

# The next lines start with the substance.
Substance,"KD, major pocket","KD, minor pocket"
"CDC25A_(114–125), wild‐type (from UniProt P30304 114-125) (peptide)",8.8 µM,0.2 µM
"RANBP3_(114–129), phosphorylated at p + 5 (from UniProt Q9H6Z4 114-129) (peptide)",1.13 µM,167 µM
"RANBP3_(114–129), phosphomimetic (E) at p + 5 (from UniProt Q9H6Z4 114-129) (peptide)",0.8 µM,61 µM
"RANBP3_(114–129), phosphomimetic (E) at p + 6 (from UniProt Q9H6Z4 114-129) (peptide)",0.14 µM,80 µM
"SQSTM1_(258–272), wild‐type (from UniProt Q13501 258-272) (peptide)",0.24 µM,14 µM
"SQSTM1_(258–272), phosphorylated (pS) (from UniProt Q13501 258-272) (peptide)",50 µM,248 µM
"RANBP3_(114–129), phosphorylated at p + 6 (from UniProt Q9H6Z4 114-129) (peptide)",0.22 µM,20 µM
"SQSTM1_(258–272), phosphomimetic (E) (from UniProt Q13501 258-272) (peptide)",5.3 µM,41 µM

# Target: PDCD6IP Alix V domain (human)
# Assay: as above
# Details: not given
row,Kd,Substance
1,88 µM,"OTUD5_(507–522), phosphomimetic (E) (from UniProt Q96G74 507-522) (peptide)"
2,13 µM,"FOXK1_(212–227), phosphorylated (pS) (from UniProt P85037 212-227) (peptide)"
3,25 µM,"FOXK1_(212–227), wild‐type (from UniProt P85037 212-227) (peptide)"

# The next lines start with the substance.
row,Substance,Kd
1,"OTUD5_(507–522), phosphorylated (pS) (from UniProt Q96G74 507-522) (peptide)",116 µM
2,"OTUD5_(507–522), wild‐type (from UniProt Q96G74 507-522) (peptide)",68 µM
3,"FOXK1_(212–227), phosphomimetic (E) (from UniProt P85037 212-227) (peptide)",13 µM

# Target: Clathrin N-terminal domain (NTD) (human) (UniProt Q00610)
# Sequence (Q00610 1-364): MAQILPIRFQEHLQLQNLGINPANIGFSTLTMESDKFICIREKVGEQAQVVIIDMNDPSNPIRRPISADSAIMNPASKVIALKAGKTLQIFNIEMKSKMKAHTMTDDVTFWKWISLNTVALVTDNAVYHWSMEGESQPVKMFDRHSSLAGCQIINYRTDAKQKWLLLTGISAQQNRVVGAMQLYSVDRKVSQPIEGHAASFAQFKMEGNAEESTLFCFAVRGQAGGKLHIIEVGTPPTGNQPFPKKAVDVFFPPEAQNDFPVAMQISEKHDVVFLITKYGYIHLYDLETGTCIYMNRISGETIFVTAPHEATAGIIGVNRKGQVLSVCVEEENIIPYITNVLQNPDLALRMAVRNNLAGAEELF
# Assay: as above
# Details: not given
row,Kd,Substance
1,< 3 µM,pS839 HURP_(826–846) peptide (from UniProt Q15398 826-846)
2,100 µM,"GTSE1_(692–707) peptide, unphosphorylated"

# Target: AP2 μ2 (human)
# Assay: as above
# Details: not given
row,Kd,Substance
1,0.49 µM,"BAIAPL1_(392–407), phosphomimetic (E) (from UniProt Q9UHR4 392-407) (peptide)"
2,2.05 µM,"PCBP1_(179–194), phosphomimetic (E) (from UniProt Q15365 179-194) (peptide)"
3,3.7 µM,"PCBP1_(179–194), wild‐type (from UniProt Q15365 179-194) (peptide)"
4,0.93 µM,"BAIAPL1_(392–407), phosphorylated (pS) (from UniProt Q9UHR4 392-407) (peptide)"

# The remaining lines, values behind:
row,Substance,Kd
1,"BAIAPL1_(392–407), wild‐type (from UniProt Q9UHR4 392-407) (peptide)",1.29 µM
2,"PCBP1_(179–194), phosphorylated (pS) (from UniProt Q15365 179-194) (peptide)",0.67 µM

# Target: SNX27 PDZ (human) (UniProt Q96L92)
# Assay: as above
# Details: not given
row,Kd,Substance
1,96 µM,"DAXX_(606–616), phosphorylated (pS) (from UniProt Q9UER7 606-616) (peptide)"
2,23 µM,"DAXX_(606–616), phosphomimetic (E) (from UniProt Q9UER7 606-616) (peptide)"
3,395 µM,"CDC25C_(30–44), phosphorylated (pS) (from UniProt P30307 30-44) (peptide)"

# The remaining lines, values behind:
row,Substance,Kd
1,"CDC25C_(30–44), wild‐type (from UniProt P30307 30-44) (peptide)",111 µM
2,"CDC25C_(30–44), phosphomimetic (E) (from UniProt P30307 30-44) (peptide)",680 µM
3,"DAXX_(606–616), wild‐type (from UniProt Q9UER7 606-616) (peptide)",300 µM

# Target: RANBP2 RanBD4 (human)
# Assay: as above
# Details: not given
row,Kd,Substance
1,733 µM,"INTS6_(145–159), phosphorylated (pS) (from UniProt Q9UL03 145-159) (peptide)"
2,1500 µM,"DHX38_(260–275), wild‐type (from UniProt Q92620 260-275) (peptide)"
3,334 µM,"INTS6_(145–159), wild‐type (from UniProt Q9UL03 145-159) (peptide)"
4,1080 µM,"INTS6_(145–159), phosphomimetic (E) (from UniProt Q9UL03 145-159) (peptide)"
5,167 µM,"DHX38_(260–275), phosphorylated (pS) (from UniProt Q92620 260-275) (peptide)"

# Target: MAP1LC3B (human) (UniProt Q9GZQ8)
# Assay: as above
# Details: not given
row,Kd,Substance
1,61 µM,"TPD52L2_(91–106), phosphorylated (pS) (from UniProt O43399 91-106) (peptide)"
2,1.9 µM,"ATG4C_(444–458), phosphorylated (pS) (from UniProt Q96DT6 444-458) (peptide)"
3,760 µM,"TPD52L2_(91–106), wild‐type (from UniProt O43399 91-106) (peptide)"

# Target: GGA1 VHS (human) (UniProt Q9UJY5)
# Sequence (Q9UJY5 17-147): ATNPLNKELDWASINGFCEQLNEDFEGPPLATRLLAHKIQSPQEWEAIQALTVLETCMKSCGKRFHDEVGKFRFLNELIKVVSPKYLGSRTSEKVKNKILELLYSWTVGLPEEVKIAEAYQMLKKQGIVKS
# Assay: as above
# Details: not given
row,Kd,Substance
1,1000 µM,"RNF11_(6–21), phosphomimetic (E) (from UniProt Q9Y3C5 6-21) (peptide)"
2,470 µM,"JUN_(59–73), wild‐type (from UniProt P05412 59-73) (peptide)"
3,1900 µM,"JUN_(59–73), phosphorylated (pS) (from UniProt P05412 59-73) (peptide)"
4,420 µM,"RNF11_(6–21), wild‐type (from UniProt Q9Y3C5 6-21) (peptide)"
5,31 µM,"RNF11_(6–21), phosphorylated (pS) (from UniProt Q9Y3C5 6-21) (peptide)"
